Laboratory results from patent publication US20090291088A1, “THERAPEUTIC COMBINATIONS OF ANTI-IGF-1R ANTIBODIES AND OTHER COMPOUNDS” (Biogen Idec MA Inc., priority 2008, published 2009).

B1: 20C8.3B8: murine anti-human IGF-1R monoclonal antibody from hybridoma; VH SEQ ID NO:43, VL SEQ ID NO:103 (antibody, V domains shown)
VH: DVQLQESGPDLVKPSQSLSLTCTVTGYSITSGYSWHWIRQFPGNKLEWMGYIHYSGGTNYNPSLKSRISITRDTSKNQFFLQLNSVTTEDTATYYCARSGYGYRSAYYFDYWGQGTTVTVSS
VL: DIVLTQSPASLAVSLGQRATISCRASKSVSTSAYSYMHWYQQKPGQPPKLLIYLASNLESGVPARFSGSGSGTDFTLNIHPVEEEDAATYYCQHSRELPYTFGGGTKLEIK
modifications: Antibody variable heavy chain sequence; Antibody variable light chain sequence
B2: 20D8.24B11: murine anti-human IGF-1R monoclonal antibody from hybridoma; VH SEQ ID NO:53, VL SEQ ID NO:103 (antibody, V domains shown)
VH: DVQLQESGPDLVKPSQSLSLTCTVTGYSITSGYSWHWIRQFPGNKLEWMGYIHYSGGTNYNPSLKSRISITRDTSKNQFFLQLNSVTTEDTATYYCARSGYGYRSAYYFDYWGQGTTLTVSS
VL: DIVLTQSPASLAVSLGQRATISCRASKSVSTSAYSYMHWYQQKPGQPPKLLIYLASNLESGVPARFSGSGSGTDFTLNIHPVEEEDAATYYCQHSRELPYTFGGGTKLEIK
modifications: Antibody variable heavy chain sequence; Antibody variable light chain sequence
B3: M14-C03: anti-IGF-1R antibody, allosteric blocker of IGF-1 and IGF-2 (antibody, V domains shown)
VH: EVQLLESGGGLVQPGGSLRLSCAASGFTFSKYMMSWVRQAPGKGLEWVSYISPSGGLTWYADSVKGRFTISRDNSKNTLYLQMNSLRAEDTAVYYCARDGARGYGMDVWGQGTTVTVSS
VL: DIQMTQSPATLSLSPGERATLSCRASQSVSSYLAWYQQKPGQAPRLLIYDASNRATGIPARFSGSGSGTDFTLTISSLEPEDFAVYYCQQRSNWPPEVTFGPGTKVDIK
modifications: Antibody variable heavy chain sequence; Antibody variable light chain sequence

Experiments:
[1] = target: T1, recombinant human IGF-1R ectodomain (Homo sapiens, UniProt P08069); assay: ELISA binding of Fabs and murine MAbs to recombinant soluble IGF-1R (IGF-1R-His, IGF-1R-Fc); details: murine monoclonal antibodies; read-out: Binding (EC50nM) Protein ELISA
T1 construct: denoted hIGF-1R(1-902)-His10, was purchased from R&D systems (Cat. No. 305-GR-050); His or Fc (two alternative proteins, not both on one chain); purchased R & D Systems 305-GR
Experimental: Recombinant human IGF-1R ectodomain was used to screen a human naïve phagemid Fab library containing 3.5×10^10 unique clones (Hoet, R. M., et al. Nat. Biotechnol. 23(3):344-8 (2005), (“Hoet et al.”) which is incorporated herein by reference in its entirety). Two distinct panning arms were followed using biotinylated IGF1R-his and IGF1R-Fc protein. Proteins were captured on steptavidin-coated magnetic beads prior to incubation with the phage library. In the case of IGF1R-Fc, a biotinylated anti-Fc antibody was captured on the magnetic beads, followed by captured of the Fc fusion protein. […] Sequence analysis of all clones determined 12 clones were isolated in both arms of the panning strategy. […]
ELISA assays were performed to determine specific binding of the Fab fragment antibodies to soluble IGF-1R over the insulin receptor. […] Bound antibody was detected with HRPO labeled goat α-human kappa (Southern Biotechnology Associates, #2060-05) for Fabs and goat α-mouse IgG Fcγ (Jackson Immunoresearch, # 115-035-164) for murine MAbs. Color development was stopped by addition of 4NH2SO4 and optical density is measured at 450 nm using a Molecular Devices plate reader and binding curves are generated.

NCI-H23 = assay: IGF driven tumor cell growth, CELL TITER-GLO, H-23; format: cell-based, human; details: for Proliferation of Tumor Cells H-23: lung cancer cells
Experimental: (§1) NCI-H23, Calu-6, Colo-205, Panc-1, BxPC-3 (ATCC) tumor lines were purchased from ATCC. Cell lines were grown in complete growth medium containing RPMI-1640 (ATCC), 10% fetal bovine serum (Irvine Scientific Inc.) and 50 μg/ml of Gentamycin (Gibco, Invitrogen). Trypsin-EDTA solution (Sigma) was used for removal of adherent cells from culture vessels. Phosphate buffered saline, pH 7.2, was from MediaTech Inc The 96-well clear bottom plates for luminescent assay was purchased from Wallac Inc.
(§2) Cells grown to 80% monolayers were, trypsinized, washed, resuspended and plated into 96-well plates in 200 μl of 2% growth medium at 8×10^3 cells/well for NCI-H23 and Colo-205 cells; and 5×10^3 cells/well for Calu-6, Panc-1 and BxPC-3 cells. After 24 hours, the culture medium was replaced with 100 μl of serum free medium (SFM), and 50 μl of serially diluted antibodies at 4× concentration was added. […] All treatments were done in triplicates. Cell growth was measured using the CELL TITER-GLO™ Luminescent Cell Viability Assay (Promega, Madison, Wis.). The 1:1 mixture of reagent and SFM was added at 200 μl/well. Luminescence was detected on Wallac (Boston, Mass.) plate reader.
(§3) The ability of the selected murine antibodies to inhibit IGF/IGF-1R dependent in vitro growth of several human tumor lines (Lung, H-23, Calu-6; Pancreas, BxPc-3, Panc-1, MiaPaCa and Colon Colo205) was measured by a proliferation assay described in Example 13.
A commercially available anti-IGF-1R antibody (IR3) was used as a positive control. The mouse IgG (anti-IDectin, IgG1) and human gamma 4 version of IDEC-152 antibody of irrelevant specificity were used as isotype matched controls for the experiments. […]

Panc-1 = assay: IGF driven tumor cell growth, CELL TITER-GLO, Panc-1; format: cell-based, human; details: pancreatic cancer cell
Experimental: as §1, §2, §3

Colo-205 = assay: IGF driven tumor cell growth, CELL TITER-GLO, Colo-205; format: cell-based, human; details: colon cancer cell
Experimental: as §1, §2, §3

hIGF-1R-Fc = target: T2, hIGF-1R-Fc (Homo sapiens, UniProt P08069); assay: IGF-1 and IGF-2 blocking ELISA-based competition assay; format: binding
T2 construct: (3) human IGF-1R(1-903)-Fc (hIGF-1R-Fc, Biogen Idec); host or cells: CHO
Experimental: hIGF-1R-Fc was biotinylated using EZ-Link Sulfo-NHS-LC-Biotin according to the protocol provided by the manufacturer (Pierce Cat. No. 21335). Biotinylated human IGF-1R-Fc at 5 μg/ml was added to the wells of SigmaScreen streptavidin-coated 96-well plates (Sigma, Cat. No. M5432-5EA; Sigma-Aldrich Corp. (St. Louis, Mo., USA)) at 100 μL/well and incubated overnight at 2-8° C. The plates were then washed four times with 200 μL/well PBST. […] Dilutions were made from 1.3 μM to 10 pM for M13-C06 and M14-C03, from 5.2 μM to […] for M14-G11, and from 2.6 μM to 10 pM for both P1E2 and αIR3. Human IGF-2 His was prepared at 320 nM in PBST, 1.0 mg/ml BSA. The antibodies were serial diluted (from […] to 5 pM for M13-C06 and M14-C03, from 5.2 μM to 5 pM for M14-G11 and αIR3, and from 5.2 μM to 20 pM for P1E2) using a solution of 320 nM IGF-2 His. The dilutions were added to the plates in duplicate at 100 μL/well and the plates were incubated at RT for 1 hour. The plates were then washed four times with 200 μL/well PBST. An HRP-conjugated anti-Histag antibody (Penta-His HRP Conjugate, QIAGEN, Cat. No. 1014992) was diluted 1:1000 in PBST and added to plates at 100 μL/well, and the plates were incubated at RT for one hour. […] The absorbance of each well was determined at 450 nm, and the results were normalized and plotted against the log of antibody concentration.

| Molecule | EC50 [1] | inhibition of IGF-1 and IGF-2 driven cell proliferation in H-23 (NCI-H23; NCI-H23 lung tumor cell line) | Proliferation of Tumor Cells H-23 (NCI-H23) | Proliferation of Tumor Cells Panc-1 (Panc-1) | Proliferation of Tumor Cells Colo-205 (Colo-205) | blocking of IGF-1 binding to IGF-1R (hIGF-1R-Fc; 320 nM IGF-1 His) | blocking of IGF-2 binding to IGF-1R (hIGF-1R-Fc; 320 nM IGF-2 His) |
| --- | --- | --- | --- | --- | --- | --- | --- |
| B1 | 0.085 nM | showed inhibition | +++ (>30%@0.1 μg/ml) | +++ (>30%@0.1 μg/ml) | +++ (>30%@0.1 μg/ml) |  |  |
| B2 | 0.042 nM |  | ++++ (>30%@0.01 μg/ml) | +++ (>30%@0.1 μg/ml) | +++ (>30%@0.1 μg/ml) |  |  |
| B3 |  |  |  |  |  | block both IGF-1 and IGF-2 binding to IGF-1R | block both IGF-1 and IGF-2 binding to IGF-1R |
